Results reported in US20020053098.

Legend:
[1] = target: wild type Arabidopsis AHAS large subunit protein (pAC774) (UniProt P17597)
[2] = target: herbicide-resistant mutant (Met124His) Arabidopsis AHAS large subunit protein (UniProt P17597)

Arabidopsis AHAS small subunit protein expressed from plasmid F1, sequence (chain, as listed by the source): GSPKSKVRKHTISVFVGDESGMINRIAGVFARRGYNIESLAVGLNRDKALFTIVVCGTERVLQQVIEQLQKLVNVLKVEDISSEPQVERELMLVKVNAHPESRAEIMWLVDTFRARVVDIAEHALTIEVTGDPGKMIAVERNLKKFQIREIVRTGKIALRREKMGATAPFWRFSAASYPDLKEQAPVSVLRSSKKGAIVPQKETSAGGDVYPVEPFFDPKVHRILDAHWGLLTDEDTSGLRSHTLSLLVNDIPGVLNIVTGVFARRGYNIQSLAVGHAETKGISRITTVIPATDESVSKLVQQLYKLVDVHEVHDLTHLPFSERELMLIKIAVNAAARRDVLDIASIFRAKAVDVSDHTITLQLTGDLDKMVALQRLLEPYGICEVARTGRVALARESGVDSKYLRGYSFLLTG

Substance: Arabidopsis AHAS small subunit protein expressed from plasmid F1
- AHAS enzymatic activity of the large subunit in vitro, with increasing amounts of small subunit [1]: small subunit protein enhances the level of enzymatic activity of the catalytic large subunit
- AHAS enzymatic activity of the mutant large subunit in vitro, in the presence of small subunit [2]: the enzymatic activity of a herbicide-resistant form of the large subunit is also enhanced
